Source: patent US20120045819A1
Positions of bridges follow the written chain, without caps; N, C: chain ends. No end group written: not given here. *: point of attachment. NHNH2 = NN*

Each binder was assayed against REFACTO® (recombinant factor VIII-like polypeptide consisting of amino acids 1-743 and 1638 through 2332 of human factor VIII) (human) (UniProt P00451) (assay: phage ELISA on the factor VIII target (REFACTO), anti-M13-HRP).
Chain of REFACTO® (recombinant factor VIII-like polypeptide consisting of amino acids 1-743 and 1638 through 2332 of human factor VIII) (human) (P00451 20-762, chain 1 of 2): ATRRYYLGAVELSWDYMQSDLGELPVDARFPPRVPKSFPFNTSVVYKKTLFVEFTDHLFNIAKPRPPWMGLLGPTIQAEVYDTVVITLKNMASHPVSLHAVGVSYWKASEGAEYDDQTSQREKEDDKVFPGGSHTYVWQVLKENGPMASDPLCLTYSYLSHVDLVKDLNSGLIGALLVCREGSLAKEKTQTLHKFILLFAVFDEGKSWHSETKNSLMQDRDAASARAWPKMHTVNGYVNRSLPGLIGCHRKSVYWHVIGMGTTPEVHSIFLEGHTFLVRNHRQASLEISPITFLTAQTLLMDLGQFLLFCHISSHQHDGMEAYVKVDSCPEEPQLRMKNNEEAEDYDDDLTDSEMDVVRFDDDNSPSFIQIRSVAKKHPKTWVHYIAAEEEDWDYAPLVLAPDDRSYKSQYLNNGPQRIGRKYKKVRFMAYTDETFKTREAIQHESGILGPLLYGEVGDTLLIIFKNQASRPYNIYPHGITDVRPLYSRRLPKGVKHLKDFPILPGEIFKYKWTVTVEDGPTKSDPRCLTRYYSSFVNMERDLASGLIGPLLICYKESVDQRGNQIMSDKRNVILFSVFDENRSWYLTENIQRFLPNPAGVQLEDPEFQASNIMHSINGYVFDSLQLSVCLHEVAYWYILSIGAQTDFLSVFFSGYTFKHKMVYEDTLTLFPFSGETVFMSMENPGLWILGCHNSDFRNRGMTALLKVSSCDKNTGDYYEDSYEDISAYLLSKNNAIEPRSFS
Chain of REFACTO® (recombinant factor VIII-like polypeptide consisting of amino acids 1-743 and 1638 through 2332 of human factor VIII) (human) (P00451 1657-2351, chain 2 of 2): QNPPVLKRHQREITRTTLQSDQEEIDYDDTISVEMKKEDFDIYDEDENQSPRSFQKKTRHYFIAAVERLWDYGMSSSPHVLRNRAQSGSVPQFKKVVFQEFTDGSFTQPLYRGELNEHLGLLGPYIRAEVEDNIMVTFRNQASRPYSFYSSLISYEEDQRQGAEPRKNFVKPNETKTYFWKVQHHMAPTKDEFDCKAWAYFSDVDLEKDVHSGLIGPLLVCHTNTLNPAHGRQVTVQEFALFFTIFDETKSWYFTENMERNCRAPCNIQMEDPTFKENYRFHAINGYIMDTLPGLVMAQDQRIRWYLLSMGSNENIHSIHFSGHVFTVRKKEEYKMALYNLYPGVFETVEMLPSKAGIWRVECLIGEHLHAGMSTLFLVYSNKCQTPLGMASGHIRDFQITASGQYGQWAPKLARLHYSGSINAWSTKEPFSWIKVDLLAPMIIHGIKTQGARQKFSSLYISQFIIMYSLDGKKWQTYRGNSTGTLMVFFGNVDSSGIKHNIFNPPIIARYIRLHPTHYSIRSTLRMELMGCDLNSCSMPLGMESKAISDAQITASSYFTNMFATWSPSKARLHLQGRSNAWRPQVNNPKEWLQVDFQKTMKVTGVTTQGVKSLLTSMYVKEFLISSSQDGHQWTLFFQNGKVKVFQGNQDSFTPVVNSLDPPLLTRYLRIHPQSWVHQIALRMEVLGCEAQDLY

| Binder | ELISA signal |
| --- | --- |
| HSCGSWLFPCFA [TN7 phage isolate A06] | 0.5 OD630 |
| HPCGSWFNPCAH [TN8 phage isolate 02 (SEQ ID NO: 13)] | 0.3 OD630 |
| HPCGSWFRPCFH [TN8 phage isolate 02 (SEQ ID NO: 14)] | 0.7 OD630 |
| HACGSWFRPCHA [TN8 phage isolate 07 (SEQ ID NO: 15)] | 0.4 OD630 |
| HLCGAWFRPCDA [TN8 phage isolate 02 (E02-TN8, SEQ ID NO: 16)] | 0.4 OD630 |
| HLCFAWFRPCDA [TN8 phage isolate 12 (SEQ ID NO: 17)] | 0.4 OD630 |
| HGCGAWFRPCHA [TN8 phage isolate 01 (SEQ ID NO: 18)] | 0.2 OD630 |
| HPCGAWFNPCPR [TN8 phage isolate 01 (SEQ ID NO: 19)] | 0.2 OD630 |
| HPCGAWLRPCYN [TN8 phage isolate 08 (SEQ ID NO: 20)] | 1 OD630 |
| HRCGSWLHPCLA [TN8 phage isolate 11/G10 (A11/G10-TN8)] | 0.3 OD630 |
| FGCSWLFPCPF [TN7 phage isolate A08] | 0.4 OD630 |
| FCWVHPFAHCL [TN9 phage isolate 02 (SEQ ID NO: 23)] | 0.2 OD630 |
| FCHVFHFSHCD [TN9 phage isolate 01 (SEQ ID NO: 24)] | 0.2 OD630 |
| FCWVFNFSHCS [TN9 phage isolate 03 (SEQ ID NO: 26)] | 1.1 OD630 |
| FCWVFPFNHCD [TN9 phage isolate 02 (SEQ ID NO: 27)] | 0.4 OD630 |
| FCWVFPFNHCS [TN9 phage isolate 12 (SEQ ID NO: 28)] | 1 OD630 |
| FCWVFPFQHCA [TN9 phage isolate 09 (E09-TN9)] | 1.1 OD630 |
| FCWVFPFHHCF [TN9 phage isolate 06 (D06-TN9)] | 0.3 OD630 |
| FCHVFNFVHCS [TN9 phage isolate 01 (SEQ ID NO: 31)] | 0.5 OD630 |
| FCHVFPFLHCD [TN9 phage isolate 11 (SEQ ID NO: 32)] | 0.2 OD630 |
| PHCNWLFPCSL [TN7 phage isolate D03] | 0.2 OD630 |
| RLCSWVSPCSA [TN7 phage isolate C5/G10] | 0.5 OD630 |
| RLCSWISPCSA [TN7 phage isolate D04] | 0.3 OD630 |
| HPCGSWLRPCLH [TN8 phage isolate 10 (C10-TN8)] | 1 OD630 |
| HPCGSWLHPCAA [TN8 phage isolate 04 (SEQ ID NO: 12)] | 0.3 OD630 |
| FHCIGVWFCLH [TN7 phage isolate A09] | 0.1 OD630 |
| RGCGSWLRPCLD [TN8 phage isolate 05 (SEQ ID NO: 11)] | 0.2 OD630 |

Each binder was assayed against REFACTO® (recombinant factor VIII-like polypeptide consisting of amino acids 1-743 and 1638 through 2332 of human factor VIII) (human) (UniProt P00451) (assay: batch binding to peptide beads; fractions by sandwich ELISA; % of input).

| Binder | % of input recovered in Eluate | % of input recovered in Unbound | % of input recovered in Wash |
| --- | --- | --- | --- |
| AEGTGDFCWVFAFDHCHDPGPEGGGS-NHNH2 (disulfide 8-16) [CS-458 (…-NHNH2)] | 47% | 20% | 10% |
| AEGTGDHLCGAWFRPCDADPGPEGGGS-NHNH2 (disulfide 9-16) [CS-454 (…-NHNH2)] | 49% | 24% | 12% |
| AEGTGDFGCSWLFPCPFDPGPEGGGS-NHNH2 (disulfide 9-15) [CS-456 (…-NHNH2)] | 24% | 47% | 20% |

These binders were tested against REFACTO® (recombinant factor VIII-like polypeptide consisting of amino acids 1-743 and 1638 through 2332 of human factor VIII) (human) (UniProt P00451) (assay: affinity column, peptide on Toyopearl Formyl 650-M; fraction quantified by factor VIII activity assay).

| Binder | % recovery in Flow | % recovery in elution A |
| --- | --- | --- |
| AEGTGDFCWVFAFDHCHDPGPEGGGS-NHNH2 (disulfide 8-16) [CS-458 (…-NHNH2)] | 1.4% | 55.6% |
| AEGTGDFCWVFPFQHCADPGPEGGGS-NHNH2 (disulfide 8-16 (inferred)) [CS-459 (…-NHNH2)] | 6.4% | 31.2% |
| AEGTGDFCWVFPFHHCFDPGPEGGGS-NHNH2 (disulfide 8-16 (inferred)) [CS-460 (…-NHNH2)] | 28.4% | 0% |
| AEGTGDHLCGAWFRPCDADPGPEGGGS-NHNH2 (disulfide 9-16) [CS-454 (…-NHNH2)] | 2.2% | 42.4% |
| AEGTGDFGCSWLFPCPFDPGPEGGGS-NHNH2 (disulfide 9-15) [CS-456 (…-NHNH2)] | 4.8% | 43% |
| AEGTGDHPCGSWLRPCLHDPGPEGGGS-NHNH2 (disulfide 9-16 (inferred)) [CS-453 (…-NHNH2)] | 0% | 26.4% |
| AEGTGDFHCIGVWFCLHDPGPEGGGS-NHNH2 (disulfide 9-15 (inferred)) [CS-455 (…-NHNH2)] | 61.6% | 1.3% |

The binders below were run against REFACTO® (recombinant factor VIII-like polypeptide consisting of amino acids 1-743 and 1638 through 2332 of human factor VIII) (human) (UniProt P00451) (assay: phage ELISA, ratio with target to without target).

| Binder | R (ELISA score with target / ELISA score without target) |
| --- | --- |
| HSCGSWLFPCFA [TN7 phage isolate A06] | 10 |
| HPCGSWFNPCAH [TN8 phage isolate 02 (SEQ ID NO: 13)] | 8 |
| HPCGSWFRPCFH [TN8 phage isolate 02 (SEQ ID NO: 14)] | 16 |
| HACGSWFRPCHA [TN8 phage isolate 07 (SEQ ID NO: 15)] | 6 |
| HLCGAWFRPCDA [TN8 phage isolate 02 (E02-TN8, SEQ ID NO: 16)] | 6 |
| HLCFAWFRPCDA [TN8 phage isolate 12 (SEQ ID NO: 17)] | 8 |
| HPCGAWLRPCYN [TN8 phage isolate 08 (SEQ ID NO: 20)] | 20 |
| HRCGSWLHPCLA [TN8 phage isolate 11/G10 (A11/G10-TN8)] | 6 |
| FGCSWLFPCPF [TN7 phage isolate A08] | 8 |
| FCWVFNFSHCS [TN9 phage isolate 03 (SEQ ID NO: 26)] | 24 |
| FCWVFPFNHCD [TN9 phage isolate 02 (SEQ ID NO: 27)] | 8 |
| FCWVFPFNHCS [TN9 phage isolate 12 (SEQ ID NO: 28)] | 18 |
| FCWVFPFQHCA [TN9 phage isolate 09 (E09-TN9)] | 24 |
| FCWVFPFHHCF [TN9 phage isolate 06 (D06-TN9)] | 6 |
| FCHVFNFVHCS [TN9 phage isolate 01 (SEQ ID NO: 31)] | 8 |
| RLCSWVSPCSA [TN7 phage isolate C5/G10] | 10 |
| RLCSWISPCSA [TN7 phage isolate D04] | 6 |
| HPCGSWLRPCLH [TN8 phage isolate 10 (C10-TN8)] | 16 |
| HPCGSWLHPCAA [TN8 phage isolate 04 (SEQ ID NO: 12)] | 6 |
| FCWVFAFDHCH [TN9 phage isolates 04 (B04-TN9) and 01 displaying Phe-Cys-Trp-Val-Phe-Ala-Phe-Asp-His-Cys-His] | 24 |
| FCWVFNWVHCD [TN9/1 phage isolate … (SEQ ID NO: 75)] | 14 |
| FCWVFQFRHCH [TN9/1 phage isolate … (SEQ ID NO: 77)] | 8 |

Each binder was assayed against REFACTO® (recombinant factor VIII-like polypeptide consisting of amino acids 1-743 and 1638 through 2332 of human factor VIII) (human) (UniProt P00451) (assay: affinity column, peptide on Toyopearl Formyl 650-M; fraction quantified by RP-HPLC).

| Binder | % recovery in Flow | % recovery in elution A | % recovery in elution B | % recovery in pH2 |
| --- | --- | --- | --- | --- |
| AEGTGDFCWVFAFDHCHDPGPEGGGS-NHNH2 (disulfide 8-16) [CS-458 (…-NHNH2)] | 1.8% | 54.3% | 0% | 0% |
| AEGTGDFCWVFPFQHCADPGPEGGGS-NHNH2 (disulfide 8-16 (inferred)) [CS-459 (…-NHNH2)] | 1.6% | 42.1% | 0% | 0% |
| AEGTGDFCWVFPFHHCFDPGPEGGGS-NHNH2 (disulfide 8-16 (inferred)) [CS-460 (…-NHNH2)] | 24.6% | 28.8% | 0% | 0% |
| AEGTGDHLCGAWFRPCDADPGPEGGGS-NHNH2 (disulfide 9-16) [CS-454 (…-NHNH2)] | 2.5% | 45.1% | 0% | 0% |
| AEGTGDFGCSWLFPCPFDPGPEGGGS-NHNH2 (disulfide 9-15) [CS-456 (…-NHNH2)] | 3.4% | 44.8% | 0% | 0% |
| AEGTGDHPCGSWLRPCLHDPGPEGGGS-NHNH2 (disulfide 9-16 (inferred)) [CS-453 (…-NHNH2)] | 0% | 43.2% | 0% | 0% |
| AEGTGDFHCIGVWFCLHDPGPEGGGS-NHNH2 (disulfide 9-15 (inferred)) [CS-455 (…-NHNH2)] | 65.8% | 1.4% | 0% | 0% |

These binders were tested against REFACTO® (recombinant factor VIII-like polypeptide consisting of amino acids 1-743 and 1638 through 2332 of human factor VIII) (human) (UniProt P00451) (assay: batch binding to peptide beads; fractions by sandwich ELISA; % of total recovered).

| Binder | % of total recovered in Eluate | % of total recovered in Unbound | % of total recovered in Wash |
| --- | --- | --- | --- |
| AEGTGDFCWVFAFDHCHDPGPEGGGS-NHNH2 (disulfide 8-16) [CS-458 (…-NHNH2)] | 27% | 59% | 14% |
